{
  "source": "the NTF2 design screens of Basanta et al. (2020)",
  "data": [
    {"assay": "protease stability score; higher = more stable; yeast display proteolysis, trypsin and chymotrypsin;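 further: relative to predicted unfolded state with 0 unfolded-like and 1 meaning tenfold more protease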", "values": [
      {"sequence": "NHDEEKTHEFKEKWMKDVTTGNEEEISKLMDPNAKIVVNGREYHGREKMWETIHRLLKILGISRVEVRIESVHIYDGRIEIHMRVHAENHESHIIVHVEKIDGRWSSKHLRID", "protease stability score": 0.968},
      {"sequence": "SEEEEDTERALRLELNLLMTGDEEQFWKNMDPHVRTHFNGQERHGREYATHVLRQLGVKHVRLHDVRIIGDKIDIDMRTNVDGRIFRVHIHSEKVNGRWHIHEFFIE", "protease stability score": 1.07},
      {"sequence": "SEDEHAVRELIELESHAWRTGDEDTLRRLIDPHTRVEQGDFIFHGREEWEKFVKRLLRHMRIEDIFIHHVRVQGDKVDTDSRLLVLFEGRREHVEVDLIILKIDGRWVISQIIIK", "protease stability score": 1.39},
      {"sequence": "DESQHVAEKVYKHLLKYWVTGDEDSVSRLVDPHARLHFEGRDLHGRHLISQFRMEWRLDHVHVDDMQVQGDKMEVRGKLDTTIDGRRTNLNEHLRLEKIDGRWYIREIRIE", "protease stability score": 1.25},
      {"sequence": "SEDDKREQDYHHYMMEIILTGDFKELFDLADPNVRLRIGDKHFHGRERMLDWYKHLSDRYKNARIHLHKKDYIGEKVIFHEIIHWNGKEVELHINMVIVNGRIRSIHVEDNER", "protease stability score": 1.39},
      {"sequence": "DEDERLFEEATRLWSKLVLTGDEKRLEELMDPNVRVVIGDKVFHGREIAVKVVKELRVEHIIIRRWEIIGDKAHIRGESRGIVNGVERVSTLDLTLLKIDGRWIIESIRLE", "protease stability score": 1.09},
      {"sequence": "SHHEDDSEISIELTHNLIETGDFELLTELFDPNARMDYNGVTVHGRERVSEFLSRFAHHIRIKRRILRHMDLFDGQIHLHEEYHYDWDGQDIHTEVRFRSEKVNGRWVPKLLHRI", "protease stability score": 0.969},
      {"sequence": "DEEKDEVREIAERIFHNLRTGDEEKLKHLIDPHVRFEYGDKEHHGWEEMVHFLREWRIHHIHIRDIKVYDGVAHVNGEVDGKFNGRRFRSDTWVIIVTINGRVKQISIQIN", "protease stability score": 1.33},
      {"sequence": "DDSEHWARRFIHLLKRSLETGDEHLNKELADPHARIEVNGRELHGREDFSETLVRMGFNHVHITDFDVQGDKIELHIETDVGDKKIQVEFIVEKVNGRWLNRSMHIRIH", "protease stability score": 0.832},
      {"sequence": "TEEHELFEKLARLIIKWLHTGDEERINEYADPNYRTHIGDKTVIGREEREKLIRWLLEHMRIDHIELKDIRVINGKVEIDGKIHGQINGQEVTRHSIIYLIFVDGVIKHISIEWR", "protease stability score": 1.35},
      {"sequence": "SESLEFATKLLEILTHLMYTGDEEDLRHLLDPHVRILFNGKYFHGMEFLMEIYKHWRIQEVRVRFRDVRDVDGRIFVRGEEENVGTINGKRDIVWSHITLIAEKVDGRWVVKEIRIE", "protease stability score": 1.88},
      {"sequence": "TDEEEMLRNFWHELIHALHTGDEELFEELADPDTRWYFENRVVIGRETVRNMIDELRIKEVRVERMRIQGDKFHAKLTQRGQINGREVNTETNLHVDIYNGRLKSVELRVK", "protease stability score": 0.888},
      {"sequence": "SEREHEALRWMELIIDLWITGDEEFTHKLADPHAKYEYGDKVIHGMEEFTRIMNEWRIKRVHLHEFRFIGNFSHSNMHRRGNIDGVDVDTEITVTVVIVNGRISSISIEVR", "protease stability score": 0.751},
      {"sequence": "DEETKKLRKFMEQFIEALRTGDEEILEHLIDPNVRNIVGDKQEHGRELLLTWLVKYKGVRWMIDHITIINGVIEIHGTLQVGDKEISIHIHVLVINGKVKSVEIREN", "protease stability score": 1.47},
      {"sequence": "LEEEEEAKTMIEHHFDNFRTGDEDLIHKLADPHVRVLYNGKILHGREKLVEMIHKLVEKMGVDHLEYRHRDMKIWDGQVEVHGERIIRQGDKTYRFDVILFVLKVDGRWVIKEVRVQ", "protease stability score": 1.47},
      {"sequence": "HSLEKDAHEAFELFADTVRTGDEKLMQHLIDPNVRFDYNGVDLHGWKDVSRLMIELRIEDVRLTHVHVIGNKVHLDTRIHSHVNGRRIDTEMHVDIEKVNGRWVIRRIEHR", "protease stability score": 1.47},
      {"sequence": "DEDRHYIEQALEILEHNIQTGNWEIIARLLDPNMRLHIGDKDIHGREESADIIRHWIHRFPNLRVRIDHFEIYGNKVIFRGTMDFDGQRHDISIFSHKVNGRWLIKSIEYR", "protease stability score": 1.59},
      {"sequence": "DEEDKWDELLLEILIRIEKTGDEEKWLRFLDPHVRLDVDGQEVHGREEVVRVQKEWKERLGVKHIVIKRTKVVNGRIDMDKVMNVDGVNIKVHYHYHLVNGVLHEVEVRLE", "protease stability score": 0.992},
      {"sequence": "DETKEHVHNWMELVVHWYETGDEEEILKNADPNVRTIFNGVDYHGWEHLEEILKKIRHFFKNARVEIERIEIQGDKLILDVNVEINGQRDTLHIHVKVVDGVMKNLEIRHG", "protease stability score": 1.59},
      {"sequence": "SETEEWQHQILEILERIQKTGDPHEFMHNADPHVRLHVNGRDFHGMELFKEMFEKFGAKVSHLRDVDIQGDKIHVDGELEFNGVTHKSHVDARKVDGRWVLTRYTIK", "protease stability score": 0.415},
      {"sequence": "DHVDEETEKMTNEITKALLTGDEDRLLELADPHVRVIVHVGDKTIHLVGRELMVEEYRRWVKEAGFDKVHHEKKHSDFVDGRAEVHSKVDVGDKHVEYRIIITKVNGKWVIKSIIIIVR", "protease stability score": 2.15},
      {"sequence": "HEESEDATRFLHQVIHALYTGDEKRFDELLDPRMRLHIGDKQHVGRENVSEFLLHLRIRHVHVHDFRVFDGRLHVDQTLDGEYDGRRREIHFELQITKINGRWFLNHFWIR", "protease stability score": 1.35},
      {"sequence": "DEDRKHIHHMFELWVHFLHTGNEHQLINLVDPHVKLEIGDKHHHGWEQLETFERAFKKEFKHMKIRFELTDIRLINGRMEIDGRDHLHIGDKTIERHLHLVVTKVDGRWQIHSVIVD", "protease stability score": 1.48},
      {"sequence": "SEEREKAERISRTLFFNFFTGDEDDWNKRADPTDRFIIGDKELVGMEEISKFLKHLRVHHEQLSDLRINLQGDKLHSHLDGYVDIEFNGRRRRTRVIIIIVVFKVNGRWTIEQFEVEFH", "protease stability score": 1.73},
      {"sequence": "DEDEEFAENVVERTIHHTQTGDWRMLKHLLDPHVRMNIDGQELHGREQWIRFMEQIKGATLELHIEDFDSQGEKLTLHVRTILVFDGRKYERHVDLLILKVDGRWHIHQFIVR", "protease stability score": 1.41},
      {"sequence": "SEEETFTEIAVKLLMHLWNTGDENELMRNFDPNARMDINGQEYHGREDIVRRLDEFKKRLGVERVHFELNDIRPVNGRADVDGIVIFNGQKLRVRHIVWKINGRWYLEEFEVR", "protease stability score": 1.44},
      {"sequence": "SEEEKIAEDLAREIEEDWLTGNEEYIMHLADPNVKSHINIDGKRIDTHGMEELTHWLSRYPNVRIEPKRMDVQGEKITLDFELNIGDKRVRVILYHIIINGRIKEIRIIIHHV", "protease stability score": 0.995},
      {"sequence": "DELEKFIKYVATRLVHDWMTGDEETSKKLLDPHYKTRILYDGRYTELHGREIFVKFVRELLEEIRIHLEVDRIRPIGDKVLLDTRLEIRIGDKRIERSTELHYVVINGRVDQMELVFI", "protease stability score": 1.32},
      {"sequence": "TEEEHFIKHATELWLRLLRTGDEHELSKMIDPHARVLIGDKNIHGRELASKFLSEFAHQIDHVEIRIKEVRTVDGKVDSDTRLDMHVDGQDIHHETRIISLKVDGKWLLQSFHFD", "protease stability score": 0.456},
      {"sequence": "NEEDEFMEVAVELMERTLKTGDERLLSELVDPNARIEFNGREWHGRKFLETLWRELTKKFPNMKVMFKIEYINSFEGHIEIEGILESNFDGRVESRRVHYNVSKINGRWIIEEIEIQ", "protease stability score": 1.35},
      {"sequence": "DEDEYMAKEMSELLIHLLLTGDEEHFRKFADPNVRLIIGEFESHGREEALRLLRILHRDYGIKHIHFRLRHIHQIGDKVNIHSQVELRQGDKHNSHEMTVIIWKVNGRWVIHSIDIV", "protease stability score": 2.38},
      {"sequence": "DEDEHDAEIWVRLVLKSLRTGDEEFLVKMADPNVRVEVGDKKDHGRNEFRKVVHKFKGVRREIHHVDVHIQGNKAEVEIHGKLNINGVEVHIIHIIRSEKVDGQWYISEVWIIIR", "protease stability score": 1.55},
      {"sequence": "TELEESAKRAVKHVVDLILTGDWELFEEMFDPHTRILVGDKHMHGREMASEHLRFWYEHLGVKHIEIRRIDVQGDKVVSDVETDIDGRHIRVNLVIHKVDGKWIIHSIHLD", "protease stability score": 1.59},
      {"sequence": "DETNKTLKEVFRELVHSLFTGDEERLTELADPHARFHQGEKELHGREEISKEMSRMIERADHVKIILTHMEVQGDKIIIEGHLEIRVDGRRIDVSTTLILHKVNGRWFITEIHII", "protease stability score": 0.241},
      {"sequence": "RDIEEINKRALESWKHALETGDEDTMEELLDPHVRVEDEHEMHHGRSAFHLWIKRVDHFRSLHIRETRIVGDKVDNNVEVDGTINGQDRLIEIRLVLVKFNGKWKFRSIHFK", "protease stability score": 1.38},
      {"sequence": "DEERRHFEHFFHLWEQIMVTGDEDMARMLADPNVRIQVGDKKYHGREHFAELIKHLRVERIRIHTFRLYDGRIELIIHVHGNVNGQRDEFETRSHTIKVDGVWVIHSFHID", "protease stability score": 1.6},
      {"sequence": "SETEEEAERFEKILLHYRKTGNEDDLLNFIDPHVRIHQGDKEIHGRELYLELMRRWKEIAGHDFFFMNIHDVEIQGEKAIIDGRLFVNGVHHKIKVIFKKINGRWIVESEHIH", "protease stability score": 0.889},
      {"sequence": "DKEEEEVREALRILLEEWHTGDFDRILDLFDPNDRMHIGDKDLHGRHIMEHFYDHMIKRVKNMRIELTDVRFQGDKVWFHVKEHFDGRTISSEIVLVKINGKWRIETIFII", "protease stability score": 1.46},
      {"sequence": "EEEEEKQERALRWFLHIIETGNEELLHRLLDPNVQVEIGDKRFHGWKHLLMVFNDLGVKHVELRDFTIINGVIRNEILLRVGDKENLTILILRKVDGKWQLERFNLQ", "protease stability score": 1.79},
      {"sequence": "DTEDHLSHRVLEYHQEVEKTGDWHELFNNIDPHARMSVGDKRYHGMESMSKWLSRIKNAKIDEEHIEIQGNKIILHGTINVDGVRIESIILSLKVDGRWLRKEVRFH", "protease stability score": 0.19},
      {"sequence": "SEEEEIYHKLAEWSKRVLETGDWREWRKLADPNTRLHVHVNGRQLDHHGRELVLTIFLWLYKHLGVKHVDERDLDYYGNKIDIHVDDRYDGRTIHNRIILFIIDGKVTSTTVHIEHE", "protease stability score": 1.38},
      {"sequence": "DELERILKEQAETIMHFWRTGDEESFNHMADPDYWLRVGDKNVHGREKASEYLRHWLEHIRIHDVKIRDKRVFNGRVFIDMREDGNVDGKRTTRTLHVIIVSIDGKITMVEIRLE", "protease stability score": 0.996},
      {"sequence": "DEENEILRELHRELVEAWLTGDEELLRRLHDPDVRVHIGDKDLVGMEQMIEDIRFWLRRFDHLRIHIHRVRAINGVIHVDGELQLFQGDKSIRHQVIIELEVVNGRIKNTKFSTI", "protease stability score": 1.4},
      {"sequence": "DEEHELTRKVLTEMWEIFMTGDWKRWHELLDPHVRFVYVQGEFEDVHHGREEVKRLFDKLLKDLGFKHSELTDTRLVGNKAVIDGTIHVGDKIYDFHLNVLVVNGKVKTIEVEIREK", "protease stability score": 1.94},
      {"sequence": "NEHKEEALHALQLWLRYYETGNEDSLREMLDPNVRVVINGKELHGMELFLDYIVDTRDRIKGLRIIIDDIEIHYVGDKVHVNIRGISYFNGREHEVEINIFSRKINGKWYLSSLELRVN", "protease stability score": 2.55},
      {"sequence": "EDEKEFIERFARILLHARFTGDWKTLLELMDPNARITIEIGDKILEFHGMEQWIRENDKTEKKIKNITIHIEDMRIVNGVLEVDIHVHIGDKKYDFRIIVVVINGKVRQLEIKVE", "protease stability score": 2.08},
      {"sequence": "SEHEEEARKASQESLHDLKTGDEDSFERLLDPNTRVIVLFDGREIIHVGREEVTRFISEWLKRYKGMRIEMQDVRVIDGRIDIHLKTDVDGKDHRLDIHSEKINGQWFLKSIFVDVH", "protease stability score": 1.95},
      {"sequence": "SEEEESERKVLHKFTEAIRTGDEHTLENLIDPNVKIDAENRSHHGMEDWLKWLMELRRRADHIDFRIHSIHTQGDKLHVHSEIIVVQGDKHIHIEISMIINKVNGRWHIHHIELR", "protease stability score": 1.29},
      {"sequence": "REIEKSLEESLKMWLENLVTGDERQLSELVDPDAKLEVGDKHHVGMETISHMIRHMRIESIEIKSIRIFDGRAEIHAYVLGNINGQRKDLNEKLHWEKINGRWEVRKILLE", "protease stability score": 2.13},
      {"sequence": "SSEEHDAKNMHKMFREAMMTGDEDLLKNLLDPHVRLTFNGKDFHGWDRVYELFRKRLEHLGITWKDWDLHIIETQGDKVELNSTLHGRVGDKHVDDHTTLFIRKIDGQWVLTEVRIG", "protease stability score": 1.46}
    ]}
  ]
}
